Paper PMC7498309

Key:
[1] = target: isolated HEPN domain (172–428 aa) of StCsm6 (Streptococcus thermophilus DGCC8004); assay: SEC
[2] = target: isolated CARF domain (1–169 aa) of StCsm6 (Streptococcus thermophilus DGCC8004); assay: SEC

Row | Substance | stoichiometry N [1] | stoichiometry N [2]
1 | isolated HEPN domain (172–428 aa) of StCsm6 (domain or fragment) | 2 | –
2 | isolated CARF domain (1–169 aa) of StCsm6 (domain or fragment) | – | 2
